The data set is described as follows: soluble on expression in E. coli; label from the status in PepcDB or PDB records.
As for “MAHHHHHHMPLPPLEEAPRSMTRRNYLVERNRLRVSAYAPTRRELEEEDIRMAQTREERRRNMLNSWKSQSMYNPDLTRPLPGGGPRSKRMKEAATLKNPNYYKIVKEEEAQLKAERTAMYRADVLQQLKDREEYLRKWREDEKAYVSSLVESNKEQARKLEEREREEARAEKEYMNRMRESNLRELEQKRMKEREREEYELSLIRTVQAREKEKAETEERRARDMKQMMRRENEEYHRSIKKKQKEDKAREEAELKAILEYNATLAERERQEQKQRRDQYKAEFEETIEKQKEFFRTHNYDEPPESIRERNEKAAAALALIKKEERLRLADRRREYRQELMQQIREKQEWQLTHIDGV”, the “soluble on expression in E. coli” value was “not soluble”.

As for “GPGSMVFFGVGATGGTGCGPKQACFPWLENSSATRCQRGGRINLRFMLDLPQGDTEAPSTNQKRAVYAFCPIVDELQVFTLKGAGRVSSLLQKTSSSGQASITPNPAPRYLSVFGFGRSGQKEYPERDVSNSTVVIAMRDIGLCNSPDSVAIVNMVILTIGMHDGKFNYISSDADTKEPDDSESGIPSGNSSGTGSPMESVQPAMVGFRPTCDESDHCIFSPTSPCVGPIRGMKNCGACYNTPDDIEGASIQVWTSYQGTDLERQPLLSGGMDPMGFRKFAGGKFVGNIKYAVSKIENTASGMMPGDETNSTP”, the “soluble on expression in E. coli” value is listed as “not soluble”.

Regarding “AIASERLYYFVIVGRDDRVLYDLLYPASLSELDWRTSSELSSPAERGDFEPHHFIPSIQVLLQFVAYSALDHIEEKYWLTSARSLKHIFRFRDWSASVQLTPNAATRFVLVHGASDDASRNVRAFLHAVYEAYVPHVVCNPFQEEDAPITSKRFHEVAKNLAKRYFSG”, the “soluble on expression in E. coli” value is reported as “soluble”.

In the case of “MSLDLFRSEPVAQPLAARLRPANLDEYVGQEHLLARGKPLREALEQGALHSMIFWGPPGVGKTTLARLLAQVSDAHFETISAVLSGVKEIRQAVEVAKQHAAQYGRRTILFVDEVHRFNKSQQDAFLPYVEDGTLIFIGATTENPSFELNNALLSRARVYVLKSLDEAALRKLVGRALNEDKGLGKRKLRLPEESFQVLLAAADGDGRRLLNLLENAADLAEDGSEISPELLQNLLGDTRRRFDKGGEAFYDQISALHKSVRGSNPDAALYWFARMLDGGCDPLYIARRVVRMASEEVGNADPRALGLCLSAWDVQERLGSPEGELAVAQAIVYLACAPKSNAVYSAFNAAMRDVAESGSREVPLHLRNAPTKLMKSLGYGEEYRYAHDEPDAYAAGEDYFPEDLEPRRYYQPVPRGLELKIRDKLEHLAELDRTSPRQREGHHHHHH”, the “soluble on expression in E. coli” value is “soluble”.

“MAAETTSEDVKLAASFKDASKLGIDQKSGIPRKVKGTLTWRLELKRTNDGFWISAFFKGASKKKISIKAEFTLLCAGQEPLNKTEKKDSDCTKKSTEYEVCAMFTECETENHFEKGSDLRFEVELTIVMENSSKKSSVKPKPEAKQEPTKENDKIVGSESMMLDQLTSKLFLKASEGARIISNEIINDLLDIANRFDVPEVKTKCEQFLLEDLKKALKEKMETAEKYELDCLQAVKSADDALANSLEKLAIK”: the “soluble on expression in E. coli” value is “not soluble”.

Turning to “MPKDNTWYTGAKLGWSQYSRENQLGAGAFGGYQVNPYVGFEMGYDWLGRMPRKAQGVQLTAKLGYPKLGTDDLDIYTRLGGMVWRADTSDKDGNGYISAAEASVSPVFAGGVEYVIRRRITPEIATRLEYQWTNNASDNGMLSLGVSYRFGQGEAA”, the “soluble on expression in E. coli” value is given as “soluble”.

With “MEFKVTLTTEEIVRGLKHYRRIAKQDVLRAPETPNPEVFRRHAEARREVYAKLAEVAEREGPEAAVAYALELYRSLPFVTGTPEDQYPEIKGQENALENFFLMIGLDPKVRREARKARKPLQ”, the “soluble on expression in E. coli” value was “soluble”.

Consider “MAHHHHHHMSSTEEYYKLMEVILHILKKHKRHVECLKILLKLNRRDKIKDLLFECGDMITCKQMALICSRHSIHLEFTQEEVIRYPHMNLNQLASLSSGEHLSSIFLKLAKDLDVEEPKLPEDIYKTHLEEKRNTNVWDSAKQNLSASFVNAFVNAAFCKDKLMTVNSSL”, for which the “soluble on expression in E. coli” value was “not soluble”.

As to “MDDSREESQFIVDDVSKTIKEAIETTIGGNAYQHDKVNNWTGQVVENCLTVLTKEQKPYKYIVTAMIMQKNGAGLHTASSCYWNNDTDGSCTVRWENKTMYCIVSVFGLAV”, the “soluble on expression in E. coli” value is given as “soluble”.

Consider “MGSDKIHHHHHHMNREVVIVGGGPAGMLMGLLLAKEKIQVTVLEKNTTFNRDFRGETIAPGSVFLLKKLGVFKALEEHGFIKVQKIKMYDREEKLFSVNFDDFNHPQKFGIDIPQPVVLEALKQKASSYPNFEYIHGATCTDLIKDGEKVVGIRYSKEKEEHQIKCRLVIGAEGRFSRLRTLGHFAVEKKEFSRDLIWFKVPKPEGWEEGNLIKVYKHDHVIILPTYPNDLRVGTYIYLGGNRETKAKGIAAFIDKVCMIEPRLRKPMEKHIKSWDDTTLLKIFTAHVDQWAKDGLILIGDAAHTLSPILGQGVNIAMQDAFELLPYVNSGLKTYEGPLPAHHFDDYISKRKKQVSFVAGFQERQEQNLAASTPFQCMLRKVKMKLLDKAPFKIKVMKKLQYGVVANETTEGLT”, for which the “soluble on expression in E. coli” value is “not soluble”.

Regarding “MITIEKYSPERHEQTCELSVLEEQSQFTVADVGEMLTRLEPTELPHLILADDDVVGFFLFDAAYSEKYDFCPKNSLGVRALLVDHRHQGKGIAKQAIQQFADFAKHHYPEFDALYLTVNCRNIPAYQCYLKSGFEDTNELYHGGPVGPQHIMRQPL”, the “soluble on expression in E. coli” value is “not soluble”.

Regarding “KPGARIGVGMEYQFNDMISLQPSLFFSQKGAKYSSGFDGNIIDADADVKINQLYLELPVNVQFRFNIADNTNLVIATGPYLACGVGGKAKFDGDASVGGIHINGDDKIDTFGDDGLDYNRFDAGWNIGLGVEFGKILVGLDTQLGFCKVMDGDAPHNANIGITLGYKF”, the “soluble on expression in E. coli” value was “not soluble”.

In the case of “MARMKARSAKGKRVAKDTWKSKVWYDIYTPQSFGGDVIGQTPANDPANLIGRISEISLRDLTNEHSKHMTRMYFKVDGVSGNNATSQFVGHDTTREYLKSQVRRRRSKINAIVEVRTKDGFKVRVKALVLTAVRARDHHKTEIRVRMEQIIKEMAKETPFAEFVHAMLMGGLGSKIYGDCKKMFPLKRVEIFKSEVIEFGKAAEAPVEEAAAEEVVEEAAAETQELEHHHHHH”, the “soluble on expression in E. coli” value was “soluble”.

Take “MFIPKSHTKLIYEYLFNEGVTVAKKDFNAKTHPNIEGVSNLEVIKTLKSLASRELVKEQFAWRHYYWYLTDAGILYLREYLALPAEIVPATIKTKPREIRVPHEDRAPRAAQGEKGDREAYRTEKVTEAGPGGAPVYRAGFGRGAPPPQ”: the “soluble on expression in E. coli” value was “not soluble”.

Regarding “MTKLHDISEHEKAIDFSIYLDSLPQYQHLASQDESHRHRALGIYSDFLSEENKSKRAALQNYKNYISLTERDPNQLAYPELQETRIDAVFSPDFMGSFAKSNGRHEETPMDGPGGYDMRSYLPYQTAPSGSLGNISTASSSCSSPPGTPAPSGKGRSPQAGGKMTSSGKGKKRLDKDSDEYRQRRERNNLAVRKSRDKAKMRNLETQHKVLELAAENDRLQKRVEQLSRELATLRNLLSATGQC”, the “soluble on expression in E. coli” value is on record as “not soluble”.

With “MQMLRNVHPVTEIQVSANMAEVRARVDFKVGAKSNIDAEILSFHGLQSDKEHVAVIFKSADTTQEAPLVRMHSECLTGDVFHSSRCDCGEQLEETITRMGQSGGIILYLRQEGRGIGLYNKIDAYRLQSQGMNTYEANNHLGFGDDLRDFTEAAQMLQALGVKKIRLVTNNPKKIRELQEHGIEIVEVVHTSAHIKDGNENYLKAKVSHGKHQLKL”, the “soluble on expression in E. coli” value was “not soluble”.

Turning to “EQSSSEIKIVRDEYGMPHIYANDTWHLFYGYGYVVAQDRLFQMEMARRSTQGTVAEVLGKDFVKFDKDIRRNYWPDAIRAQIAALSPEDMSILQGYADGMNAWIDKVNTNPETLLPKQFNTFGFTPKRWEPFDVAMIFVGTMANRFSDSTSEIDNLALLTALKDKYGVSQGMAVFNQLKWLVNPSAPTTIAVQESNYPLKFNQQNSQTAALLPRYDLPAPMLDRPAKGADGALLALAAGKNRETIAAQFAQGGANGLAGY”, the “soluble on expression in E. coli” value is reported as “soluble”.

In the case of “SVDMQSLDEEDFSVSKSSDADAEFDIVIGNIEDIIMEDEFQHLQQSFMEKYYLEFDDSEENKLSYTPIFNEYIEILEKHLEQQLVERIPGFNMDAFTHSLKQHKDEVSGDILDMLLTFTDFMAFKEMFTDYRAEKEGRGLDLSTGLVVKSLNSSSASPLTPSMASQSI”, the “soluble on expression in E. coli” value is “not soluble”.

“SSRHVFLTGPPGVGKTTLIQKAIEVLQSSGLPVDGFYTQEVRQEGKRIGFDVVTLSGAQGPLSRVGSQPLPGKPECRVGQYVVNLDSFEQLALPVLRNAGSSCGPKHRVCIIDEIGKMELFSQPFIQAVRQMLSTPGIIVVGTIPVPKGKPLALVEEIRKRRDVKVFNVTRDNRNSLLPDIVAVVQSSRT”: the “soluble on expression in E. coli” value is reported as “soluble”.

For the sequence “DKEVVVLGSGDPMFHGIGSTLHRLLPNHSMTVIPQPSSASLACARLGWALDTTSVYSLVTHPIAHLTLAIEQGDRFLVLGRNHESPHEICEHLISLGQSTAEVTVLSDIGSVSETITSGAATDYPSNDSALNVIAIRPLAATRSRVPGLPDSEYVTDGQLTKQHVRALAISALAPKPHETLWDIGGGSGSIAIEWLRSTPQTTAVCFEISEERRERILSNAINLGVSDRIAVQQGAPRAFDDVPDNPD”, the “soluble on expression in E. coli” value is “not soluble”.

Turning to “MASHWMIYGANGYTGRLVAEQAQREGLTPLLGGRNPAALHALGSQLGLECRVFDLGDPQACREALDQVKVVAHCAGPFSATSTPMIAACRAAGTHYVDITGEIAVFEQAHAGDAEAREAGIVVCPGVGFDVIPTDCLAACLKEALPDAQRLALGFDTGSGLSTGTAKTSVEGLKFGGKIRENGRLRDVPLGYKRRDIDFGRGLRHAVTIPWGDVATAYYSTGIPDIEVYLPAPPLLALGMRLIDPLRPLLGRQRVQDWLKGQVDKRIAGPDQAARERLRTWVWGEARNARGERRTARLETANVYDLTLHGVLLAVRHLLDYQGPGGYFTPSRLLGARCVESLPGSGRITVIG”, the “soluble on expression in E. coli” value is “not soluble”.

With “MSTKTMKEKAVELLQKCEVVTLASVNKEGYPRPVPMSKIAAEGISTIWMSTGADSLKTIDFLSNPKAGLCFQEKGDSVALMGEVEVVTDEKLKQELWQDWFIEHFPGGPTDPGYVLLKFTANHATYWIEGTFIHKKLD”, the “soluble on expression in E. coli” value was “soluble”.

On to “SLRFLGEKAAAKRQVLNADSVEQSFVGLKQLISCRNWRAAVDLCGRLLTAHGQGYGKSGLLTSHTTDSLQLWFVRLALLVKLGLFQNAEMEFEPFGNLDQPDLYYEYYPHVYPGRRGSMVPFSMRILHAELQQYLGNPQESLDRLHKVKTVCSKILANLEQGLAEDGGMSSVTQEGRQASIRLWRSRLGRVMYSMANCLLLMKDYVLAVEAYHSVIKYYPEQEPQLLSGIGRISLQIGDIKTAEKYFQDVEKVTQKLDGLQGKIMVLMNSAFLHLGQNNFAEAHRFFTEILRMDPRNAVANNNAAVCLLYLGKLKDSLRQLEAMVQQDPRHYLHESVLFNLTTMYELESSRSMQKKQALLEAVAGKEGDSFNTQCLKLA”, for which the “soluble on expression in E. coli” value is listed as “not soluble”.

As to “MVNLTELDRMLTETRGLLSQVRSGKGGASQEAVEGQGSAADGRIRVVAGAGGEITSIELDPRVMRMSSQELAEHLVEAVNQALRELRAQVTTAETAIAPEVLAQRLAEVQDQGLRQMTMFVEGLRDAMTQLGQRADRSG”, the “soluble on expression in E. coli” value is “not soluble”.

For “GGSGWNADNVDPSQCIKQSGVQYTYNSGVSVCMQGLNEGKVRGVSVSGVFYYNDGTTSNFKGVVTPSTPVNTNQDINKTNKVGVQKYRALTEWVGSRSHHHHHH”, the “soluble on expression in E. coli” value is given as “soluble”.

As for “MRGSVPSVREIETLLSQLPWRQFQSPRVHLEQYTTPVHLAARIAHHVALCIDEDERRSVQAVDLGTGTGILALALCLAGLNHVLGVDVDSEALELARANAAALWELCPQSVGAVLEFAAVDVQPNSLALAPKSFDVAVLNPPFGTRQRSADIAFLDVACHLSRRFVYSLHKSSTRSYLSRRLERFGCTAQVYARLRFDLPATYVFHRERAVDIDVDLWQIEVKR”, the “soluble on expression in E. coli” value is “not soluble”.

(Values after the DeepSol protein solubility set.)
